From WO2017179718A1 (dated 2017)

Target: T1, human CD64 (human, UniProt P12314 16-374)
T1 construct: also called hCD64; FcγRIA
Experiment: flow cytometry on CHO-S-hCD64 and THP-1 cells

T1 sequence (P12314 16-374 limits assumed): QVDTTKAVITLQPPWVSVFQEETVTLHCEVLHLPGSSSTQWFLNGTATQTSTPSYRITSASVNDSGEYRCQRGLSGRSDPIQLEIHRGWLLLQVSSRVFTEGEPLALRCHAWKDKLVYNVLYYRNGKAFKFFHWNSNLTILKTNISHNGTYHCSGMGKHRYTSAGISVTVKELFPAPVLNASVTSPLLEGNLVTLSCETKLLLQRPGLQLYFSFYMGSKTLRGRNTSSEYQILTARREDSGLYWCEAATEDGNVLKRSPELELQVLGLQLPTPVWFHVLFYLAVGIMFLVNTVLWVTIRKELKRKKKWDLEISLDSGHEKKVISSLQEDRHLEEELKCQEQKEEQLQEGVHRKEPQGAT

- binding result: binds
B1: m22-AF647 antibody (antibody, human IgG4, V domains shown)
VH: QVQLVESGGGVVQPGRSLRLSCSSSGFIFSDNYMYWVRQAPGKGLEWVATISDGGSYTYYPDSVKGRFTISRDNSKNTLFLQMDSLRPEDTGVYFCARGYYRYEGAMDYWGQGTPVTVSS
VL: DIQLTQSPSSLSASVGDRVTITCKSSQSVLYSSNQKNYLAWYQQKPGKAPKLLIYWASTRESGVPSRFSGSGSGTDFTFTISSLQPEDIATYYCHQYLSSWTFGQGTKLEIK
modifications: Alexa Fluor 647 label on the antibody (sites not given)
notes: kappa) fluorescently labelled with Alexa Fluor 647
